Assay: label from the status in PepcDB records
For “MTWSHWEITPFITSVFFILGVLTLFWVSQNWIINFFNTHHWRVDQSLITDWYGLIYMMLFVFGMQTAVVGQNDAWIFMNFQLIGLTFCGYFLNVRVRYYYLYPLVFIFMGFNHSLYYWESWGHAVTLILFFTALGRLRKHVPLQTKQGQVTLYLVTCAGFGAVLWWFMKLKFNLSWATYWQEWTYLLVFASLLYIYASMLSANAHLKQNLVAFANHDALTKIENFAAYKTAINYQVTSSRKNGSQLTMLMFDIDHFKQVNDTYGHLAGDKILQHVAQVATIVFHANNPQISLYRTGGEEFNVIFPNYDLTEALAVAEQLFAAINHIAVPVNDHQIQLSISIGLSELAADDQSPTAFYQRVDANLYHSKKHGRMQITAK”, the protein production was “failed”.
For “MTYCVAMRLDAGLVFLSDSRTNAGVDAISTFRKMTVFEREGDRVMVLLTAGNLAISQAVRQVLTEARDKARSLWTARDMFEATTIVGEAVREVYDRDAAALAKAKIDFNVSIIFGGQIGGERPRLFNVYAAGNFIEATPENCYFQIGEAKYGKPIIDRLIRASLPLDEAAKCALISMDSTLKSNISVGLPLDLLVYEADSLRVTRFVAIDEENPYFAMIRSTWGKRLRQVFAEIEDPDWQTGTHPAHPLRRAGHPTAEVEPVRIAPPAAPPAAEGAAVPQRAPGPAFGQGAAAQRVAGGSHEPH”, the protein production was “failed”.
In the case of “MTYDLTVIIPVYNTEKYLRRCLESIVNQDDIEQCSIKVICINDGSTDESRKIIEEFVEKYSYIEIFNKENGGLADVRNTGLQFINDSLYTVSLDSDDFWDKSFLTEFNKYKSSNYDLIFFDINLVDCDGNPVKELIVNPKFDKYNKKKDFMVVKHAAWSKICRTNLYDNINFPKGKLYEDLAVMPYLTSRAERIHYIQKPLINYVINTPGSIMNSSKSNIFDIYDSLIHLFNLFGNHFEKYRNELQYLAIEHLCVGHTYRLLNYPEATKQDFKDIVIFMEKYFGKHWDKNKYVKRGVQKVNINSSLSYVVPVFLKFLKYGGIIKLYDIKRVLLSKK”, the protein production is reported as “failed”.
In the case of “MTYEIVIAGFGGQGVLSMGKILAYSGLMEDKEVSWMPSYGPEQRGGTSNVTVIVSDEQVSSPVLNEYDIVIVLNQPSLDKFEARVKKGGILVYDPDSIVLKNKRDDIQIYEVDATQESLRMGNQK”, the protein production is reported as “failed”.
For “MTYHASTPSTPLLVTGGTGTLGGHVVPLLREAGHDVRVLTRRTRPATGNGITYVTGDLRTGEGVEAAVDGVHTVLHLAGGPKGDDEATRTLVRAAARADVRHLAYISVVGADRVPLAWLRTKLESERAIADSGLGWTVLRAAQFHELTLTMIEKMTRLPVLPVPGGLRLQPVAAREVAVRLAELTLAEPSGRVPDMTGPEVLDLATLAHSYLDLRGGRRRPKLPVRIPGKAGRAYRSGQNLTLEDALVGKVTWTEFLAERAAV”, the protein production was “failed”.
With “MTYKDYTGLDRTELLSKVRHMMSDKRFNHVLGVERAAIELAERYGYDKEKAGLAALLHDYAKELSDDEFLRLIDKYQPDPDLKKWGNNIWHGLVGIYKIQEDLAIKDQDILAAIAKHTVGSAQMSTLDKIVYVADYIEHNRDFPGVEEARELAKVDLNKAVAYETARTVAFLASKAQPIYPKTIETYNAYIPYLD” the protein production was “not failed”.
For “MTYKVFIDGEAGTTGLQIRARLEGRDDIRLITLGDADRKDTRARLAAFDAADVGILCLPDAAAVEIVAQLAGTGTRLIDASTAHRVDPGWVFGFAELDNDLRARIAGGQFVSNPGCYSTGAIALLHPLVKRGLIAADQALAINAISGYSGGGKAMIAEFESGKTDGPFVYATEQRHKHLPEIVAHAGLTRQPVFVPSVGPYEQGMIVQVPLPFVEPGQGAAIEAALADHYATSRFVSVVSPDHYGARIDPRRLNGTNQLELSVHGNLDTGGAVLLALLDNLGKGASGAAVQNLNIMLGLDEGLGL”, the protein production was “failed”.
In the case of “MTYMNNEVTTKASKQRLEVHKPRPIFFETLTITQIQIFMQSYSRLMQFKVKDLMIDKRRLVEVPDNATLGDALNTMTILGIKPVANRVRAVPVAAKPGQWLGAGGSMIVELDKQSGSARKQYIGMVTMLDVVAHIAGDDGESGLDKKMAAPVSSIIGHCPEGLSLWSLNPNTSIMDCMEMLSKGIHRVLVPLDSNTENITGPELVESASAYAMLSQMDLISFFFDQSSQLHGILSHTVTDLSAIHNTVLALTSQARVKDAIQCMSIAMLNAVPIVEASGEGEDHKQLVDGKNRRVVGTFSASDLKGCHLATLRSWLPLNALEFVEKIPRTLLFTAATSTPGRELVTCHVTSTLAQVIHMVTTKRVHRVWVVDQNGGLQGLVSLTDIIAVVRSALLSGAPDLF”, the protein production is reported as “failed”.
In the case of “MTYNKIMSAAESMEDGIEDMENNLESWGDDMNEYFGDEYEKAETISLDGIKNFFLKAEVGEVKIEISDRADEASYKIQRINPKYFDVEKKGDTISFEDNTPSKFFKNLGFNFKNNSPKIYISLPRNIVFNNFEIKSGVGELDIHDINVEKFNLSAGVGEVNIYDAKISKDAEIKAGVGEVNFKDSTVTNMDIKSGVGSFSFSGTALGKTSVKGGIGEVDLKINGSEKDYDFDVSAGLGEVIINGKKSKTFLADRQKSGSIAQNSITVKGGIGSISIRFKNLEHHHHHH”, the protein production is reported as “failed”.
With “MTYQALMFDIDGTLTNSQPAYTTVMREVLATYGKPFSPAQAQKTFPMAAEQAMTELGIAASEFDHFQAQYEDVMASHYDQIELYPGITSLFEQLPSELRLGIVTSQRRNELESGMRSYPFMMRMAVTISADDTPKRKPDPLPLLTALEKVNVAPQNALFIGDSVSDEQTAQAANVDFGLAVWGMDPNADHQKVAHRFQKPLDILELFK” the protein production was “not failed”.
For “MTYRAEVDGLRAIAVTLVILFHSGVEQFAGGFIGVDVFFVISGYLITTIVINDLENQKFSLGDFYERRIRRILPLLLVVIAVSYLMSWWLFLPQAHKDVGQLAVSSILSSSNILLYLKGHNYFGLEDQANPLFHTWSLGVEEQYYIVIPLLLMLLARGKNAFYLTFFIAVFALSLMAIVYTSNDPDFAFYMIFSRAWELATGSLLALVMRKAQVQSNDTLATIGIVLILASALLFEKSQDGAGITLLVPVIGSALVILFASKDNVCGKLLSLKWVVFVGLISYSLYLWHIPLFVFYRYMLDATQDVNISLYIAALFVLSYFTWRFVEKPFRSRKAMSMRTVSAVVVLLTLPLLTFGVIGHQNGGFPERSAFFEAMRINNGYGLDCNGNTDVNDVCSSAPQPTIAVLGNSHSMVYVKRLSEVTPTGVVQLTQDSCAVGYVDILEAAGSISCRQFFKQAVDTILRTPSIRRVVISSNFNKELSQADYEASLTGLLNELEGKEVVVFGPTPSAPFAVGECLWKARLFGEQEESVCDFSPKRHHPQNVAKLVNYFDRFEHVEFVDLTDAICRNGVCRMKVGANNAMYTDDSHLSYKGAELVLGHYHNSTNETQQFTYDRQ”, the protein production was “failed”.
In the case of “MTYRDFIGRLKENGKLVEIQQPVSPIFEASRIAKKTKGPVLFHNVSGSKVIMNLLGSRDELSSMLGVPKEEIIKKLSEVSPEGEVRLVPGSPTLEVIESEVDLTKLPILTHFEKDGAPYITAGIVVSEYEGVMNASIHRLMLVGKDKLAARLVPPRHTYLLHKKAAEKGETLPVAIVLGCDPTIIYATSTRVPAGKEFEYAAALRGTPVEVFECSNGIKVPHSEIILEGYIDTKERVDEGPFVDITGTYDMVRKEPVIHITRIIHRKDPIYHGILPAGPEHLLMMGVPYEPRIYRAVGEVTTVKNVVLTEGGCCYLHAVVQIEKQTEGDAKNAIMAAFAAHTSLKHVVVVDEDINIFDPNDVEFAIATRVKGDMDILTITNVRGSSLDPRGASDGTTTKVGIDATKVLIEKENFERAIIPEELEHHHHHH”, the protein production is reported as “failed”.
In the case of “MVAARPAERSGDPAAVRVPVPSAWWVLIGGVIGLFASMTLTVEKVRILLDPIYVPSCNVNPIVSCGSVMTTPQASLLGFPNPLLGIAGFTVVVVTGVLAVAKVPLPRWYWIGLAVGILVGVAFVHWLIFQSLYRIGALCPYCMVVWAVIATLLVVVASIVFGPMRENRGSQERVGARLLYQWRWSLATLWFTTVFLLIMVRFWDYWSTLI”, the protein production is reported as “failed”.
With “MVAGFTVHSGPHHVPHRDMTHHSRPPGHAPRVTILMPVYNGEKYLAAAMESILDQTFRDFILLIIDDGSSDSSLAIARSFGDPRVQVERNPKNLGLVKTLNRGLDLVQTEFVARMDCDDIALPDRLEKQIAFLDENPDIGMCGTAYELFHESLRQTIRPPCRHEEIVYGLLDDNVFLHSSVIVRMEVLNRHGLRYREDYRLAEDYELWARLARYTHIGNLPQVLVRYRSHPENVSNTNKGEQIATRDRVRLEHLESFGLAPAADQKTLHIDLFSLAFQGSPDQLADARRWLEALARAVSTRCGLPLGRLHRDFALLWYSACGRSAHHGLTVLFSYLKSAMAWKGPKSYILKLLFRCLMRDPIPAVTKLEHHHHHH” the protein production was “not failed”.
For “MVAVWSAVAALLGVLINNSLSLVIKDYTVQEWRLGIAGYNGAIVGMYWGDSIFSIMGLCLFLVTLLICLLIEFRLRALLIPKQLPILSLPAMVSILVMVFTISLFSFDTNHLLFTGAAEPVLQTYSREVAIILVVSAMAYQYPLATLQTLGISLTGGLVAQWLTGLNLYALVDLWAINLVLAYFSIKTLFLKHARLASLAATFNALLAWIIWYFWFITGLEQLSAPLLIPFIMSSLITLSLYRQYINHNLLQSELWRTFKLMLINRLRAKQCVAITGSGIRKGTLPDYPSGQWLDPKVPITSYTLAEFKASKRCRYLYWKASYDYYQQALTINKNNIDEQLDYLLNHYLSGLFTETVDSLFNTEQHPVYECYGSIKRLYCLDCAKQQAWPPIPLWSQRDLHCQHCSGLLKPQILAADENIDSECYQALQKNMMECGCLLVIGVPTITPVVSMIIENANANKIPIIFIGTIPFGYFVEEKDVQLTGDIAHWLAEINGFINLLHPLKWGCKWKK”, the protein production was “failed”.
With “MVDADGIYYLGPEGSFTHEAASLFKGKDLKAESTISLVFKRVYERESSIGIVPIENSLEGPVNETLDNLYNYDNIYVIGEIEKKIELVLAARSDNLSQIKRIYSHPHAFNEAREKLKELGFNEYIPVESTSKAAKIVSQDSEAAAICSNFAAKLYNLKVLITISSHNNYTRFIVLSKEMNSNGNKSMILFTVPHKPGALYKVLQVFYEYNINISMIYSRPLKSIPWQYYFYLEYEGGISNREFIEKLVKSTSVLKIKGSFSKLNNDPGF” the protein production was “failed”.
With “MVDDIFERGSKGSSDFFTGNVWVKMLVTDENGVFNTQVYDVVFEPGARTHWHSHPGGQILIVTRGKGFYQERGKPARILKKGDVVEIPPNVVHWHGAAPDEELVHIGISTQVHLGPAEWLGSVTEEEYRKATEGK” the protein production was “not failed”.
With “MVDINRRGALGSLLAGAGLAALPASAEAAQMGLLPAKPTSGPTWTTGIEGQRKADLGDGTFLNPILTGDRPDPSILKDGADYYMTHSSFDAYPGLLIWHSRDLVNWTPVTTTLKTNVGSIWAPELCKHKGRYYIYLPAKFPGNNTSYVIWADKIEGPWSEPIDLKLPRYIDPGHIVDEAGERWLFLSGGDRIKLAPDGLSTVGKPEHVYDPWRYPDDWDVEGFSPEGPKLMRRGEYFYMITAVGGTAGPPTGHMVIAARAKSLAGPWENHPRNPLVRTTDNAEKWWSRGHATLVEGPTPGDWWTVYHGYENGYYTLGRQTLLAPVTWTADGWFDIGGGDLSQPIKKPKGGKPGPHGMALSDDFSTDKYGVQWNFFDPKPGEQDRIKREGGVLTLKGAGEAPSTGSPLIFVNGDQAYEIECEIEIEPETRAGLILFYDRQLYCGLGFDAKNFVTHQYGIERGRPANPHGAKMLMRLRNNRHIVSFHTSGDGGKTWKRFDRGMEVSGYHHNVRGGFLMLKPGIYAAGKGSARFRGFKYRALP” the protein production was “failed”.
In the case of “MVDIVCWAVKNGSAGRNLLLIANASSEDDQFWPFLQGLRYRGFKLFATIPDRTLPDDECLTAGIEDTGSDD”, the protein production is reported as “failed”.
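Further: failed if final PepcDB status was selected cloned or expressed and not failed if soluble or beyond.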
